Measured values reported in US20120321697A1, “BPB-BASED CARGO DELIVERY SYSTEM” (GWANGJU INSTITUTE OF SCIENCE AND TECHNOLOGY, priority 2009, published 2012).
No end group written: not given here.

How the values were obtained:
fibronectin EDB [1] = target: T1, fibronectin EDB (Homo sapiens, UniProt P02751); experiment: Ka (1/Ms)
T1 construct: After transformation of pET28b vector carrying fibronectin ED-B into BL21 cells; His-tag (N); made in house; host or cells: E. coli BL21
Source text: (§1) Table printed on a drawing sheet, Fig. 11b
Head of the field: Ka (1/Ms)
(§2) The patent's description of the figure: FIG. 11a represents purification of the GST-BPB fusion protein.
(§3) FIG. 11b represents affinity of the GST-BPB to fibronectin EDB.
(§4) First copying reader's note: The name GST-BPB is printed only in Fig. 11a on this sheet, and the description gives Fig. 11b as its affinity to fibronectin EDB; the KD head says M but the cell prints nM.
(§5) Where the first naming reader finds the target: description_of_the_figure: FIG. 11b represents affinity of the GST-BPB to fibronectin EDB.

fibronectin EDB [2] = target: T1, fibronectin EDB; experiment: Kd (1/s)
Source text: as §1
Head of the field: Kd (1/s)
as §2, §3, §4, §5

T1 sequence (P02751 1271-1359): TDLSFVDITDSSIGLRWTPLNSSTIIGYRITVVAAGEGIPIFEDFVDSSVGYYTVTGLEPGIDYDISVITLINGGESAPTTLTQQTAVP

GST-BPB: fusion protein of glutathione S-transferase and BPB HCSSAVGSWTWENGKWTWKGIIRLEQ recognizing fibronectin EDB ({GST}-HCSSAVGSWTWENGKWTWKGIIRLEQ)
Ka (1/Ms) (fibronectin EDB [1]): 1.22 e4 1/Ms | Kd (fibronectin EDB [2]): 0.00347 s⁻¹
